Measurements taken from patent US20220332795A1 (ARO BIOTHERAPEUTICS, published 2022).
Positions count from the first letter of the chain named.

B1: SEQ ID NO 69 (designed binder, not shown: small tags and cut ends)
chain: MLPAPKNLVVSRVTEDSARLSWTAPDAAFDSFHIAYEETATSGEAIYLRVPGSERSYDLTGLKPGTEYGVEIEGVKGGARSRPLYADFTT
notes: FN3 domain, hit of the apical domain panning
B2: SEQ ID NO 63 (designed binder, not shown: small tags and cut ends)
chain: MLPAPKNLVVSRVTEDSARLSWTAPDAAFDSFCISYYERMGRGEAIVLTVPGSERSYDLTGLKPGTEYMVYIFGVKGGLNSLPLSAIFTT
notes: as for B1
B3: SEQ ID NO 6 (designed binder, not shown: small tags and cut ends)
chain: MLPAPKNLVVSRVTEDSARLSWTAPDAAFDSFPIIYMETFSRGEAIVLTVPGSERSYDLTGLKPGTEYRVPIGGVKGGSSSCPLSAIFTT
notes: as for B1
B4: SEQ ID NO 62 (designed binder, not shown: small tags and cut ends)
chain: B3 chain with P33K, I35R, M37T, F40R, R42I, R69C, S79D, C82W, F88S
notes: as for B1
B5: SEQ ID NO 67 (designed binder, not shown: small tags and cut ends)
chain: MLPAPKNLVVSRVTEDSARLSWTAPDAAFDSFTILYAEQAQFGEAIVLTVPGSERSYDLTGLKPGTEYPITGVKGGTRSGPLSAISTT
notes: as for B1
B6: SEQ ID NO 59 (designed binder, not shown: small tags and cut ends)
chain: MLPAPKNLVVSRVTEDSARLSWTAPDAAFDSFVYNEVHWIGEAIVLTVPGSERSYDLTGLKPGTEYFVGIYGVKGGHWSKPLSAIFTT
notes: as for B1
B7: SEQ ID NO 76 (designed binder, not shown: small tags and cut ends)
chain: MLPAPKNLVVSRVTEDSARLSWTAPDAAFDSFTIEYYENIGIGEAIVLTVPGSERSYDLTGLKPGTEYSVPIVGVKGGPYSHPLSAIFTT
notes: as for B1
B8: SEQ ID NO 85 (designed binder, not shown: small tags and cut ends)
chain: B7 chain with T33I, Y37F, N39P, G41P, S69A, P71N, V73Y, P79Y, Y80L
notes: as for B1
B9: SEQ ID NO 29 (designed binder, not shown: small tags and cut ends)
chain: MLPAPKNLVVSRVTEDSARLSWTAPDAAFDSFWIEYWEAVGFGEAIVLTVPGSERSYDLTGLKPGTEYFVGIYGVKGGYLSAPLSAIFTT
notes: as for B1
B10: SEQ ID NO 54 (designed binder, not shown: small tags and cut ends)
chain: B7 chain with T33A, E35A, Y37G, N39H, G41V, S69M, V73A, Y80I, H82L
notes: as for B1
B11: SEQ ID NO 66 (designed binder, not shown: small tags and cut ends)
chain: MLPAPKNLVVSRVTEDSARLSWTAPDAAFDSFTIDYDEPRSPGEAIVLTVPGSERSYDLTGLKPGTEYRVFIWGIKGGDTSFPLSAIFTT
notes: as for B1
B12: SEQ ID NO 61 (designed binder, not shown: small tags and cut ends)
chain: MLPAPKNLVVSRVTEDSARLSWTAPDAAFDSFQIVYSELWIKGEAIVLTVPGSERSYDLTGLKPGTEYQVPIPGVKGGRNSFPLSAIFTT
notes: as for B1
B13: SEQ ID NO 58 (designed binder, not shown: small tags and cut ends)
chain: MLPAPKNLVVSRVTEDSARLSWTAPDAAFDSFHIEYLELSRHGEAIVLTVPGSERSYDLTGLKPGTEYWVMIFGVKGGGPSKPLSAIFTT
notes: as for B1
B14: SEQ ID NO 71 (designed binder, not shown: small tags and cut ends)
chain: B13 chain with H33P, E35S, R41L, H42Y, W69P, M71G, F73A, G79V, P80V, K82R
notes: as for B1
B15: SEQ ID NO 101 (designed binder, not shown: small tags and cut ends)
chain: MLPAPKNLVVSRVTEDSARLSWTAPDAAFDSFHILYEELFLVGEAIVLTVPGSERSYDLTGLKPGTEYKVPISGVKGGPVSRPLSAIFTT
notes: as for B1

biological target: T1, recombinant biotinylated CD71 extracellular domain (Sino Biologics) with an N-terminal 6His tag (human, UniProt P02786 89-760, biotinylated (site not stated)); assay: primary solution ELISA screen
T1 construct: extracellular domain; also called hCD71; huCD71 ECD
T1 sequence (P02786 other isoform, or with tags, fused parts or gaps): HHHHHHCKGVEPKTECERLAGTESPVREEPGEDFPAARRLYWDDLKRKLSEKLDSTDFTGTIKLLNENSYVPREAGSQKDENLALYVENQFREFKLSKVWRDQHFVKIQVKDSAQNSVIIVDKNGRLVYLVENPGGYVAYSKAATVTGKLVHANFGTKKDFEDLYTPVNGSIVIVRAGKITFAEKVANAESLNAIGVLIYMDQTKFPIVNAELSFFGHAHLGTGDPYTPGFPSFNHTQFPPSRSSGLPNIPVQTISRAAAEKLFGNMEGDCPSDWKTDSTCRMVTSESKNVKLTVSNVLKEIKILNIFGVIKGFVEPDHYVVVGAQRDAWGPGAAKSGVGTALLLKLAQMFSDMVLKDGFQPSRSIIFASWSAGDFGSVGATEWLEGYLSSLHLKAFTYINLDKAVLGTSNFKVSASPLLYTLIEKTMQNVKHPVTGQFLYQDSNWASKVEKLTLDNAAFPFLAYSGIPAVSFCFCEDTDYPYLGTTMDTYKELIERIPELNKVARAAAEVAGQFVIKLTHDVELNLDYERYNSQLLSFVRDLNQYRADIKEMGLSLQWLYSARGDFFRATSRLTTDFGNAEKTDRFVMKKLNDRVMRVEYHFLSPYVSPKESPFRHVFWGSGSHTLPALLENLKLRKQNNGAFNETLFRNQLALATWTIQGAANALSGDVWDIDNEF

Row | RLU | Binder
1 | 3.17e+06 RLU | B1
2 | 4.71e+06 RLU | B2
3 | 315000 RLU | B3
4 | 229000 RLU | B4
5 | 1.85e+06 RLU | B5
6 | 1.11e+06 RLU | B6
7 | 674000 RLU | B7
8 | 210000 RLU | B8
9 | 2.17e+06 RLU | B9
10 | 579000 RLU | B10
11 | 232000 RLU | B11
12 | 252000 RLU | B12
13 | 1.04e+06 RLU | B13
14 | 2.64e+06 RLU | B14
15 | 336000 RLU | B15

biological target: T1, recombinant biotinylated CD71 …; assay: primary solution ELISA screen, signal on hCD71 over HSA

Row | hCD71:HSA | Binder
16 | 1170 | B1
17 | 826 | B2
18 | 43 | B3
19 | 28 | B4
20 | 131 | B5
21 | 68 | B6
22 | 41 | B7
23 | 33 | B8
24 | 580 | B9
25 | 49 | B10
26 | 29 | B11
27 | 19 | B12
28 | 101 | B13
29 | 96 | B14
30 | 73 | B15
